B1: Differentially expressed in FDCP 6 (Mus musculus), Q8C2K1 (parent)
chain: MALRKELLKSIWYAFTALDVEKSGKVSKSQLKVLSHNLYTVLNIPHDPVALEEHFRDDDDGPVSSQGYMPYLNKYILDKVEEGAFVKEHFDELCWTLTAKKNYRADGIGSSPLSNQDAFRLWCLFNFLSEDKYPLIMVPDEVEYLLKKLLGSLSLEMGLGELEELLAQDAQSAQTAVGLSVWQFLELFNSGRCLRGVGRDSLSMAIQEVYQELIQDVLKQGYLWKRGHLRRNWAERWFQLQPSSLCYFGSEECKEKRGTIPLDAHCCVEVLPDREGKRCMFCVKTASRTYEMSASDTRQRQEWTAAIQTAIRLQAEGKTSLHKDLKQKRREQREQRERRRAAKEEELLRLQQLQEEKERKLQELELLQEAQRQAERLLQEEEERRRSQHKELQQALEGQLREAEQARASMQAEMELKKEEAARQRQRIAELEEMQERLQEALQLEVKARRDEEAVRLAQTRLLEEEEEKLKQLMHLKEEQERYIERAQQEKQELQQEMALQSRSLQHAQQQLEEVRQNRQRADEDVEAAQRKLRQASTNVKHWNVQMNRLMHPIEPGDKRPTTSSSFTGFQPPPLARRDSSLKRLTRWGSQGNRTLSVNSSEQKSLNGGDETPILALASQEEKLDPAPGN
partner: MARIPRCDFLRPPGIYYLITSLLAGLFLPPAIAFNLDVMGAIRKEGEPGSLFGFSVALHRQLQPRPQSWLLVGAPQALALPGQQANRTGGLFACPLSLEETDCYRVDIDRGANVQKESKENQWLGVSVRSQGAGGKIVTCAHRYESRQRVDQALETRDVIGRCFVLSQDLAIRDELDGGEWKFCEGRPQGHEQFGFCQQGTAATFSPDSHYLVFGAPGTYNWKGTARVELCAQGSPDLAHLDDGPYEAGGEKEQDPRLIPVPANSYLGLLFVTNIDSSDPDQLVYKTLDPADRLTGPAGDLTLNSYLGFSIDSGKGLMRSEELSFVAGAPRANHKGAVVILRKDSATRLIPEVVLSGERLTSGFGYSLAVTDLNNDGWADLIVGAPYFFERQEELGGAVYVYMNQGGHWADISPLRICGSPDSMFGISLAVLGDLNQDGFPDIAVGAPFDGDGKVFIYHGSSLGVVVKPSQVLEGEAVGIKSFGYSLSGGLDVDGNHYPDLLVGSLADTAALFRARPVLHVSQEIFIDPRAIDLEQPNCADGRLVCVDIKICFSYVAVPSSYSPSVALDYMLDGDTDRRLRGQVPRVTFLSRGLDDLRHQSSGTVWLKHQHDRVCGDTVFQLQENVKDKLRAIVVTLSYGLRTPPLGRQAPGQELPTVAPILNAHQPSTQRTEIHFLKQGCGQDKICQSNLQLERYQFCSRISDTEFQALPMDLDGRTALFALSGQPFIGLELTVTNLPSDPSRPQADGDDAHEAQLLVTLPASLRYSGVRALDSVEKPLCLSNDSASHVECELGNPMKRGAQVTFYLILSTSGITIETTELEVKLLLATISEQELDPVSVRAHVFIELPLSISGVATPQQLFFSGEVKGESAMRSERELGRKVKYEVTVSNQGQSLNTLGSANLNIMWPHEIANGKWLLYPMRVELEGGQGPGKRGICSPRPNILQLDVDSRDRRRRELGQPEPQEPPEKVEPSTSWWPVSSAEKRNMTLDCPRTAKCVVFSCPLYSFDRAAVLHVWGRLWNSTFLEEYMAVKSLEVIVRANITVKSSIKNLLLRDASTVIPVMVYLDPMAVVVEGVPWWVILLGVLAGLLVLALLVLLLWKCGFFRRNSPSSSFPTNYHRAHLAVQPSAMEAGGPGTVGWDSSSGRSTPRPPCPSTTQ

The text below walks through data of IntAct's records for PubMed 17403664.

The variants in this assay derive from B1. As to conditions: with Itga7, Q61738-6.
Regarding Y210E, the “effect of a mutation on the interaction” value is on record as “decreasing interaction”.
